The labels stand for the following.
B1: HDV Ribozyme (parent)
chain: GGCCGGCAUGGUCCCAGCCUCCUCGCUGGCGCCGGCUGGGCAACAUUCCGAGGGGACCGUCCCCUCGGUAAUGGCGAAUGGGACCCA

In this series the parent is B1. Put plainly: self-cleavage, relative activity (ratio to wild type); higher = more cleavage; co-transcriptional.
On to G29U G73A, for which the self-cleavage was determined as 0.0898. Next, C30G G67C: 0.0528; C30G C57G: 0.208. Next, C30G C57A: 0.138; C30A G34C: 0.119; C30A G34A: 0.0801. As for C30A G74A, the self-cleavage was found to be 0.123. In the case of C30A G74U it was 0.223; in that of C30U C75A, 0.0959. In the case of C30U C63G it was 0.47; in that of G31A A56G, 0.369; in that of C30U G68A, 0.546.

As to G29U U65C, the self-cleavage was 0.173. In the case of G29U U65G it was 0.0755; in that of C30U A51C, 0.594; in that of C30U A51G, 0.784. In the case of C30A U37A it was 0; in that of C30G G73U, 0.0845. In the case of C30G G82U it was 0.0627. C30U G59U: the self-cleavage is 0.831. In the case of C30U G59C it was 0.67; in that of C30A C49U, 0.615; in that of C30A C49G, 0.232. In the case of C30A C84A it was 0.295; in that of C30A C84U, 0.13. Consider C30A A45U, for which the self-cleavage amounted to 0.375. Next, C30A A45G: 0.391; C30G A51G: 0.

As to C30G A51U, the self-cleavage turned out to be 0.0297.

As to C30U A71U, the self-cleavage is 0.372. Next, C30U U72A: 0.277. For C30U U72G, the self-cleavage stood at 0.128.

As for C30U U72C, the self-cleavage is 0.0959. In the case of G31A C32G it was 0.198; in that of G31A C32A, 0.0941. Next, C30A G67A: 0.623. In the case of C30A G67U it was 0.339; in that of G29U G68C, 0.106; in that of G31A C36A, 0.117. With G31A C36G, the self-cleavage amounted to 0.233. In the case of C30A G53C it was 0.47. Regarding G31A C58U, the self-cleavage was found to be 0.399. Next, C30U A70C: 0.525. As for C30U C41G, the self-cleavage is 0.212.

In the case of C30U C41U, the self-cleavage is 0.447.

As to C30U A77C, the self-cleavage was determined as 0.181.

As to C30G C48U, the self-cleavage was 0.241.

Turning to C30A C61A, the self-cleavage worked out at 0.428. Next, C30A G82A: 0.0898; C30A G82U: 0.166. As to G29U G52C, the self-cleavage was determined as 0.0268. Consider C30U U60A, for which the self-cleavage was 0.69. As for C30U U60C, the self-cleavage was 0.831. In the case of G29U G81A it was 0.12; in that of C30U C57G, 0.683; in that of C30U A45U, 0.32. In the case of C30U A45C it was 0.138; in that of C30G C49U, 0.0511; in that of C30G C49A, 0.116. Turning to C30G C49G, the self-cleavage is 0.203. In the case of C30U A56G it was 0.665; in that of G31A A43G, 0.0386.

For the variant G31A A43C, the self-cleavage came out at 0.106. Next, C30U G73C: 0.136; C30U G73A: 0.277; C30G G35C: 0.198. In the case of C30G G35A it was 0.191.

As to C30G G35U, the self-cleavage came out at 0.138. Next, G29U U69C: 0.128; G29U U69G: 0.0615; C30G G55C: 0.111. Take C30A A51C: the self-cleavage was found to be 0.612. Next, C30A A51U: 0.735. In the case of G31A C61U it was 0.442. For C30G A78G, the self-cleavage stood at 0.0923.

For the variant C30G A78U, the self-cleavage worked out at 0.0678. Next, C30G A78C: 0.0744; C30G G38C: 0.0594. In the case of C30U G53A it was 0.547; in that of C30U G53C, 0.554; in that of C30U G53U, 0.697. Next, C30G A71U: 0.0875; C30G A71C: 0.0554; G31A C64A: 0.359.

C30U G35U: the self-cleavage was found to be 0.0219. For G31A C49U, the self-cleavage was 0.404. In the case of C30A G81U it was 0.134. As for C30A G81A, the self-cleavage came out at 0.111. In the case of C30U U46G it was 0.231; in that of C30U G76U, 0.805; in that of C30U G76C, 0.683. For C30A G73A, the self-cleavage amounted to 0.237. In the case of C30A G73C it was 0.119. C30G G31C: the self-cleavage was determined as 0.104. In the case of C30G G31U it was 0.126; in that of C30U C64G, 0.653; in that of C30U C64A, 0.422. In the case of C30A C66U it was 0.421; in that of C30U G74A, 0.0329; in that of C30U G74C, 0.113.

Turning to C30U G39C, the self-cleavage is 0.0314. In the case of C30U G39U it was 0.0936; in that of C30A G54A, 0.535; in that of C30A G54U, 0.5.

Take C30A G54C: the self-cleavage turned out to be 0.519.

With C30A U79C, the self-cleavage was found to be 0.216. Take G31A: the self-cleavage turned out to be 0.503.

As for C30G G52C, the self-cleavage stood at 0.133. Next, C30G G52A: 0.0287; C30G G52U: 0.02; C30U C84G: 0.306. In the case of C30U C84U it was 0.319; in that of C30U C84A, 0.252. On to C30A C44A, for which the self-cleavage stood at 0.208. Next, C30A C44G: 0.0831. In the case of G31A A78C it was 0.169; in that of G31A A78U, 0.175. In the case of C30A A77U it was 0.0354. For the variant C30A C57U, the self-cleavage is 0.587.

On to C30A C57G, for which the self-cleavage is 0.284. Next, C30A C57A: 0.688; C30U C61U: 0.719. For C30G U47G, the self-cleavage was 0.0678. Next, G29U G82U: 0.095; G29U G82C: 0.0545; C30U G67C: 0.649.

With C30A C41A, the self-cleavage is 0.429. In the case of C30G G40C it was 0.106.

For C30G G40U, the self-cleavage stood at 0.0514. Next, C30G G39A: 0.0608; C30G G39U: 0.0692; C30G G80A: 0.141.

On to C30A U69A, for which the self-cleavage is 0.353. In the case of C30A U69G it was 0.469; in that of C30G A83C, 0.0489. Next, C30G U37A: 0.0462; C30G G68U: 0.0228; C30G G68A: 0.126. In the case of C30U A78C, the self-cleavage was 0.0978.

In the case of C30U A78U, the self-cleavage is 0.101. Next, C30U A78G: 0.208.

For C30G A43U, the self-cleavage worked out at 0.194. Next, C30G U46C: 0.0831; G31A A87G: 0.352; G31A A87C: 0.385. In the case of G29U U46C it was 0; in that of G29U G67A, 0.12; in that of G29U G67U, 0.0817. For G29U G67C, the self-cleavage worked out at 0.136. Next, G31A A51C: 0.396. Next, G31A A51G: 0.554; G31A A51U: 0.283. As to C30A G55C, the self-cleavage was 0.653. As for C30A G68A, the self-cleavage amounted to 0.411. In the case of C30A G68U it was 0.569; in that of C30G G74A, 0.0733. In the case of C30U C85A it was 0.441; in that of C30G A77G, 0.189. Next, C30G A77C: 0.095; C30A G76A: 0.585.

Take C30A G76U: the self-cleavage was 0.554. In the case of C30A G76C it was 0.464; in that of C30U G82C, 0.102. For C30U G82U, the self-cleavage was determined as 0.252. Next, C30A C48U: 0.533; C30U U37C: 0.906; C30U U37G: 0.
